Measurements: patent US20260201015A1 (University of Washington, published 2026)
Several values for one entry are separate records, joined by “and”; a condition that tells them apart may be missing. Equal entries are not always repeated.

What was measured:
[1] = target: T1, Gastric inhibitory polypeptide (GIP) (UniProt P09681 52-93, fluorescently labeled (FAM or TAMRA) in FP assays, site not stated); assay: fluorescence polarization (FIG. 7b)
T1 peptide (looked up): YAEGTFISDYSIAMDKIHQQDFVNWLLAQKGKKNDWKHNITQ
Method: (§1) Fluorescence polarization binding assays were carried out in 96-well plates (Corning 3686), with two-fold serial dilution of designed peptide binders in the presence of 0.5 nM fluorescently labeled peptide targets. Protein and peptide were diluted from their stock concentration into 20 mM Tris-HCl pH 8, 100 mM NaCl, 0.1% v/v Tween 20, and the protein was titrated in 2-fold serial dilutions onto constant peptide. After incubating the peptide and binder for one hour at room temperature, the fluorescence polarization was measured at the excitation and emission wavelengths of the FAM dye (485/530 nm) or the TAMRA dye (530/590 nm), in a Synergy Neo2 multi-mode plate reader. Titrations were conducted in replicate, and the Kd was fitted with SciPy¹⁸. Specifically, curves were fit to N observations of an observed signal, Signalᵢ, at titrated concentrations according to the following equation: […]

[2] = target: T1, Gastric inhibitory polypeptide (GIP); assay: fluorescence polarization titration
Method: as §1

neuropeptide Y (NPY) [3] = target: T2, neuropeptide Y (NPY) (UniProt P01303 29-64, fluorescently labeled (FAM or TAMRA) in FP assays, site not stated; biotinylated in yeast display); assay: fluorescence polarization titration (FIG. 6b)
Method: as §1

BIM BH3 peptide (Bim) = target: T3, BIM BH3 peptide (Bim) (UniProt O43521 141-166, limits assumed, fluorescently labeled (FAM or TAMRA) in FP assays, site not stated; biotinylated in yeast display); assay: fluorescence polarization
T3 construct: domain: BH3
T3 sequence (O43521 141-166 limits assumed): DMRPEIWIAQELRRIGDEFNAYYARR
Method: as §1

glucagon (GCG) [4] = target: T4, glucagon (GCG) (UniProt P01275 53-81, fluorescently labeled (FAM or TAMRA) in FP assays, site not stated; biotinylated in yeast display); assay: fluorescence polarization
T4 sequence (P01275 53-81 limits assumed): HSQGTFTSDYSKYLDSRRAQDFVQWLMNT
Method: as §1

secretin (SCT) = target: T5, secretin (SCT) (UniProt P09683 28-54, fluorescently labeled (FAM or TAMRA) in FP assays, site not stated); assay: fluorescence polarization
T5 peptide (looked up): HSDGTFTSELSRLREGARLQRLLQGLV
Method: as §1

peptide YY (PYY) = peptide YY (PYY) (UniProt P10082 29-64, limits assumed, fluorescently labeled (FAM or TAMRA) in FP assays, site not stated); assay: fluorescence polarization
Chain of peptide YY (PYY) (P10082 29-64 limits assumed): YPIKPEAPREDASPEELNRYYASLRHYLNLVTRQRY
Method: as §1

neuropeptide Y (NPY) [5] = target: T2, neuropeptide Y (NPY); assay: fluorescence polarization
Method: as §1

[6] = target: T6, parathyroid hormone (PTH) peptide (UniProt P01270 32-65, limits assumed, TAMRA label in FP assays (PTH-TAMRA), site not stated; biotinylated in yeast display); assay: fluorescence polarization
T6 construct: In the NanoBiT assay the peptide was genetically fused to lgBiT; also called PTH-TAMRA peptide
T6 peptide (looked up): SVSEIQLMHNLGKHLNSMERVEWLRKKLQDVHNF
Method: as §1

[7] = target: PTH related peptide (PTHrp) (UniProt P12272 37-70, limits assumed, fluorescently labeled (FAM or TAMRA) in FP assays, site not stated); assay: fluorescence polarization
Chain of PTH related peptide (PTHrp) (P12272 37-70 limits assumed): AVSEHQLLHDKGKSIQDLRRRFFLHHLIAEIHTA
Method: as §1

glucagon (GCG) [8] = target: T4, glucagon (GCG); assay: fluorescence polarization titration (FIG. 6a)
Method: as §1

[9] = target: T7, Glucagon-like peptide 1 (GLP1) (UniProt P01275 98-128, fluorescently labeled (FAM or TAMRA) in FP assays, site not stated); assay: fluorescence polarization (FIG. 7a)
T7 peptide (looked up): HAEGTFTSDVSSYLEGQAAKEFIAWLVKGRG
Method: as §1

[10] = target: T7, Glucagon-like peptide 1 (GLP1); assay: fluorescence polarization titration
Method: as §1

[11] = target: T6, parathyroid hormone (PTH) peptide; assay: FP against the NanoBiT estimate for the starting parametric binder
[12] = target: T6, parathyroid hormone (PTH) peptide; assay: fluorescence polarization, binder titrated onto labeled peptide
Method: as §1

B1: GIP_A08 (Sequence threading), SEQ ID NO: 6 (designed binder)
chain: SPKEKAERLIKEAKEAAEKAKEAAERSGLEEAKKAAEELTKLLEEAAARVAADPEDETKLRALEKIVEAAKEAVKALEVAIESGDEQLIRAALSLVEAAVHLAKALLAKPESPLVDFGFELLKLAAKTLAAYAEGEDVDKIALKLKAISAMAEALRLALAGDLERAARAAEEAVRYAIEAGDKELLRLAAEVAAYIARLAEEAGLEEVARRAREAAERAREAAK
Kd [1]: < 100 nM
Kd [2]: 6.96 nM

B2: NPY_A9 (RFjoint), inpainted NPY binder, SEQ ID NO: 4 (designed binder)
chain: GAAEKLAELYEKFKALREKALEVLKKAVEALENKADKETLLKLIKELKELAEKFEELAEEFERNAGESTTASLNATAAYMARIGLLAALLALAKAAGVPEEELEEIKRRIEETAKRAIEAAERLKALAEARGDTKHVAVGVEAVRMATELYELAQKIIDAF
Kd (neuropeptide Y (NPY) [3]): 3500 nM

B3: BIM_E09 (RF Diffusion), fully diffused Bim binder, SEQ ID NO: 11 (designed binder)
chain: EEERKEKREKVRAGLKRAIAELPAEVAARCLALLDDASDEEFIEAVLEVLEAMREALVAMAREGRLDAVRRATSHINEVLVDAAELALEKGREYFRRLCLIVCDMMIELIRLEPEQTPELRRIRERLEEIRRRLE
Kd (BIM BH3 peptide (Bim)): < 0.5 nM

B4: SCT_A02 (Sequence threading), threaded SCT binder, SEQ ID NO: 5 (designed binder)
chain: SEELEERLREARERLEEARERLEEAREEGDLREMARALLEEARAVLEIARVAAEAGDDEALREAARRAGEVIRRAGEVGLRAAEEGDTETIREAMLAILEAQRASAVIALHLARDDPEVAEALRVIERLLRTAERALREGQLEVARLATEAVEALADAILRAREIGRPELVREAARLAEEARRLLEAALEALRAGDEEGARERLARARELIREIRERVRRA
notes: also called SCT design
Kd (glucagon (GCG) [4]): 12 nM
fold selectivity for SCT over GCG (glucagon (GCG) [4]): 4 fold
Kd (secretin (SCT)): 3.95 nM and 2.7 nM

B5: NPY_C5 (RF Diffusion/Partial diffusion), partially diffused NPY binder, SEQ ID NO: 9 (designed binder)
chain: GMEERRKELLEKLKKLKEEVVELFRELAQALRDGASKERLEEIRERAEKLAEEAKKVAEELEKLAEGDAVLQLYLAEAYALEAAALTIEAVAAAELGASKEELEKIKEKIEEALKKAEEAMKKALAEAKARGRERLVRLIEEARKEFEKLSKAIKELLEQV
binding result (peptide YY (PYY)): no binding
Kd (neuropeptide Y (NPY) [5]): 5.29 nM and 5.6 nM

B6: PTH_D08, fully diffused PTH binder (RF Diffusion), SEQ ID NO: 10 (designed binder)
chain: MREKLEEMLEEFNEVIDELIEITKEDAPELEELRERAEEAVENERLDELEEILDELEVIILEAMFRDLSAAIEMTKAKNDKEKLKELLKQLEELEKRIKELLERAKKRGNKKIIEKLEKLLKEVEKLKKEIEEYLK
Kd [6]: < 0.5 nM
binding result [7]: no binding

B7: PPY_A04 (RF Diffusion_flex), flexibly diffused PYY binder, SEQ ID NO: 12 (designed binder)
chain: GLEEAEKLLEEIFANFEEIVELIKKNIGTERGKKLLKVFVATVDLILARLEQGADLAELAELVKEIAELAKDEEGLEEAEKLVKELTAAR
Kd (peptide YY (PYY)): 24.5 nM

B8: GCG_A04 (RFjoint), inpainted GCG binder, SEQ ID NO: 3 (designed binder)
chain: MLDELFSLLNKMFELSDKYRELRKELRKAIESGAPEEELRELLEKMLEIAKKLLELTKELKKLVEDVLKNNPDPVERAKAVLLYAVGVHILYSESSELEVIAERLGFKDIAEKAKEIADKARELKEEVKRKLREIREEVPDPEIRKAAEEAIEMLESNDKRLKEFRKL
Kd (glucagon (GCG) [8]): 231 nM

B9: GLP1_B04 (Sequence threading), SEQ ID NO: 7 (designed binder)
chain: SPEEEARRAAREAERAAREAREAARRLGDEESVRVAERLEREARRAERERDLELARRVLRAAEALRLALEGELLAREQGDELGVVVARMITLAARDSALGRGTPELARLLLRVARALLEGDLEEVVRSLAEIAKREIGTERALLAVEAIKLVALESIEEGDFETAELAIEKLREIAEEFEGTEVAEKAREAIEEIEKKKREAE
Kd [9]: < 100 nM
Kd [10]: 68.8 nM

B10: PTH_B10 (RFjoint), inpainted PTH binder, SEQ ID NO: 2 (designed binder)
chain: SFELLEKLIELSKELYEVAKKYIETGDPELKKKLEEILKKIEEAYKELLESDAHPLEKALAKLILAEAYVVKSFAYISSGKDLEKAQEYLDKAKEILEELLKLLEELKKEETDPEKLEIIEELEKIAEELLKEIEE
notes: Expressed in E. coli, purified on Ni-NTA and by SEC
fold improvement in affinity over the starting PTH binder [11]: ~1000 fold
Kd [12]: 6.1 nM

B11: GCG_C09 (RF Diffusion/Partial diffusion), partially diffused GCG binder, SEQ ID NO: 8 (designed binder)
chain: SMEKLAEIMQEIIEAYQEVKDAFFKFIKAVHEGAPEEELKKYLEKMKEALEKMKELLERLEKEAKKVIEENKDKKLELKVLLMLRLAYLLLKVSIELTKIAAEKLGDKELVEELEKESKEVEKKIKELEERIKKLLEEVDDEELKEAYKEVEEMEKEAEKFLEKMRKV
binding result (glucagon (GCG) [4]): binds
fold weaker binding to SCT than to GCG (secretin (SCT)): 10 fold
